Reference: the supplement of paper PMC7877785
± gives the uncertainty stated by the source.

Test: self-splicing fitness, log relative to wild type (ln ratio); higher = more splicing; Tetrahymena group I intron in knt gene, E. coli kanamycin selection, DiMSum; sequences stand for … in CUCUCU…GGAGGGAAAAGUUAUCAGGCAUGCACCUGGUAGCUAGUCUUUAAACCAAUAGAUUGCAUCGGUUUAAAAGGCAAGACCGUCAAAUUGCGGGAAAGGGGUCAACAGCCGUUCAGUACCAAGUCUCAGGGGAAACUUUGAGAUGGCCUUGCAAAGGGUAUGGUAAUAAGCUGACGGACAUGGUCCUAACCACGCAGCCAAGUCCUAAGUCAACAGAUCUUCUGUUGAUAUGGAUGCAGUUCACAGACUAAAUGUCGGUCGGGGAAGAUGUAUUCUUCUCAUAAGAUAUAGUCGGACCUCUCCUUAAUGGGAGCUAGCGGAUGAAGUGAUGCAACACUGGAGCCGCUGGGAACUAAUUUGUAUGCGAAAGUAUAUUGAUUAGUUUUGGAGUACUCGUGGUCG
Procedure, shortened: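 DiMSum derived fitness as the error-weighted combination of fold changes across replicates, kanamycin versus no kanamycin, normalised to wild type. E. coli BL21(DE3) held the library, which randomised all eight P1ex-region intron nucleotides within the knt kanamycin-resistance gene on pET-22b(+). Six replicate transformations grew overnight at 37°C or 30°C on LB agar with or without 25 μg/mL kanamycin, also containing 100 μg/mL carbenicillin, 50 μM IPTG and 0.2% rhamnose, and pooled colonies were amplicon-sequenced on an Illumina HiSeq 2500.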

Sequence	self-splicing fitness (ln) (30 °C)	self-splicing fitness (ln) (37 °C)
UUCUAGCAAUAUUACGUAUU	-3.61 ± 0.33	-2.57 ± 0.25
UUCUAGCAAUAUUACGUCAC	–	-2.28 ± 0.37
UUCUAGCAAUAUUACGUGAA	-0.339 ± 0.066	-0.148 ± 0.082
UUCUAGCAAUAUUACGUGGA	-1.73 ± 0.31	-1.15 ± 0.18
UUCUAGCAAUAUUACGUUAU	-1.76 ± 0.26	-2.14 ± 0.27
UUGAAGCAAUAUUACGAAAA	-0.641 ± 0.12	0.066 ± 0.15
UUGAAGCAAUAUUACGAAAU	-3.51 ± 0.13	-0.963 ± 0.09
UUGAAGCAAUAUUACGAUAU	-1.97 ± 0.075	-1.03 ± 0.1
UUGAAGCAAUAUUACGAUGG	-0.452 ± 0.07	0.232 ± 0.1
UUGAAGCAAUAUUACGCAUA	-0.461 ± 0.072	0.189 ± 0.1
UUGAAGCAAUAUUACGCCGA	0.633 ± 0.2	0.737 ± 0.25
UUGAAGCAAUAUUACGCUAU	-2.7 ± 0.25	-1.45 ± 0.26
UUGAAGCAAUAUUACGCUUU	-3.5 ± 0.23	-2.56 ± 0.36
UUGAAGCAAUAUUACGGAAC	-3.62 ± 0.32	-2.08 ± 0.3
UUGAAGCAAUAUUACGGCCU	-0.822 ± 0.13	-0.147 ± 0.16
UUGAAGCAAUAUUACGGGAC	-2.18 ± 0.3	-2.34 ± 0.28
UUGAAGCAAUAUUACGUCAA	-0.54 ± 0.083	0.078 ± 0.1
UUGAAGCAAUAUUACGUCAC	-3.27 ± 0.21	-1.25 ± 0.2
UUGAAGCAAUAUUACGUCCU	-0.231 ± 0.18	-0.346 ± 0.13

Sequence	self-splicing fitness (ln) (30 °C)	self-splicing fitness (ln) (37 °C)
UUGAAGCAAUAUUACGUCUA	0.0429 ± 0.11	0.627 ± 0.12
UUGAAGCAAUAUUACGUGGC	-3.36 ± 0.2	-1.66 ± 0.22
UUGAAGCAAUAUUACGUGUU	-4.53 ± 0.21	-1.92 ± 0.14
UUGAAGCAAUAUUACGUUAG	-0.587 ± 0.1	0.138 ± 0.12
UUGAAGCAAUAUUACGUUUC	-3.35 ± 0.2	-3.3 ± 0.32
UUGCAGCAAUAUUACGAACA	-0.626 ± 0.17	-1.24 ± 0.15
UUGCAGCAAUAUUACGAAGC	-2.28 ± 0.3	-0.93 ± 0.36
UUGCAGCAAUAUUACGAAUC	–	-2.06 ± 0.47
UUGCAGCAAUAUUACGAGUG	-1.61 ± 0.1	-1.46 ± 0.13
UUGCAGCAAUAUUACGCCGG	-0.957 ± 0.075	-0.103 ± 0.12
UUGCAGCAAUAUUACGCCUC	-2.47 ± 0.45	-0.787 ± 0.37
UUGCAGCAAUAUUACGCUGA	-3.27 ± 0.26	-1.68 ± 0.17
UUGCAGCAAUAUUACGGAAA	-2.52 ± 0.14	-0.504 ± 0.1
UUGCAGCAAUAUUACGGAAG	-3.02 ± 0.34	-0.414 ± 0.14
UUGCAGCAAUAUUACGGAGU	-4.51 ± 0.42	-2.44 ± 0.2
UUGCAGCAAUAUUACGGCUG	-3.43 ± 0.3	-2.59 ± 0.24
UUGCAGCAAUAUUACGGUGA	-1.44 ± 0.14	0.0799 ± 0.14
UUGCAGCAAUAUUACGGUGC	-3.79 ± 0.26	-2.67 ± 0.26
UUGCAGCAAUAUUACGUUGG	-2.68 ± 0.15	-2.42 ± 0.18
